Measured values reported in article PMC10215022.

What was measured:
[1] = target: SARS-CoV-2 Wuhan (WT) spike protein RBD, His-tagged (SARS-CoV-2 Wuhan (WT)) (UniProt P0DTC2); test: SPR
[2] = target: SARS-CoV-2 Omicron BA.5 spike protein, plate-bound (MSD V-PLEX) (SARS-CoV-2 Omicron BA.5)

| Substance | Kd [1] | koff [1] | kon [1] | IC50 [2] |
| --- | --- | --- | --- | --- |
| decavalent IgM ACE2 decoy (from UniProt Q9BYF1;P01591) (Fc fusion) | 0.097 nM | 3.5e-05 s⁻¹ | 380000 M⁻¹ s⁻¹ | – |
| REGEN-COV mAb cocktail (casirivimab and imdevimab at 1:1 molar ratio) | – | – | – | 5.2 nM |
